Data as given in paper PMC11151819.

Biological target: BIR3 domain of XIAP (human) (UniProt P98170)
Test: SEC

stoichiometry N: 2
Substance: BIR3 domain of XIAP (from UniProt P98170 241-356) (domain or fragment)
